Source: US20240376222A1 (University of Texas, published 2024)
Where two headings read alike, the source gives them in different places.

Columns and labels:
[1] = biological target: T1, cynomolgus TfR extracellular domain (ECD) (cynomolgus); experiment: Octet BLI, serial dilution of antigen
T1 chain: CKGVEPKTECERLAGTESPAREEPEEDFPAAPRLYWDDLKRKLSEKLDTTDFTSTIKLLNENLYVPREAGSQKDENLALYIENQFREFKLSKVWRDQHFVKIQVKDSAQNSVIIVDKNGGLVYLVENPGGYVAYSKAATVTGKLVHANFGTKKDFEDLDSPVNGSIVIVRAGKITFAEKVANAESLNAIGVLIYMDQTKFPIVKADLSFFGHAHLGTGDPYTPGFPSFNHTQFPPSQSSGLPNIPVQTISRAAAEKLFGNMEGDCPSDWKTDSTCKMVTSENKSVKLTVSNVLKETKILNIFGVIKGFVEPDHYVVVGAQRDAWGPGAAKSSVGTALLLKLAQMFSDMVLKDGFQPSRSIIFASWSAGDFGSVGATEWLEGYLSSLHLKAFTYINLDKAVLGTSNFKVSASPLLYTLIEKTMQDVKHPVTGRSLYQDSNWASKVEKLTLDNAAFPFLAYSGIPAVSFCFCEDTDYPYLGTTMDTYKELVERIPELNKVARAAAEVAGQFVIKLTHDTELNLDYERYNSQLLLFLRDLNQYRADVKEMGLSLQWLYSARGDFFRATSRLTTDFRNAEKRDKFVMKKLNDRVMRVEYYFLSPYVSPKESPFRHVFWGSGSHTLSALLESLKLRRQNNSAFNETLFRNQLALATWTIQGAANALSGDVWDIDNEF

[2] = biological target: T2, human TfR extracellular domain (ECD) (human, UniProt P02786 89-760); experiment: Octet BLI, serial dilution of antigen
T2 construct: extracellular domain; Bought protein; also called HuTfR; huTfR

[3] = biological target: T2, human TfR extracellular domain (ECD); experiment: phage ELISA, scFv phage on coated TfR, anti-M13-HRP, single point
[4] = biological target: T2, human TfR extracellular domain (ECD); experiment: as above; remark: listed apart in the source
[5] = biological target: T3, muTfR extracellular domain (ECD), His-tagged (mouse, UniProt Q62351 89-763); experiment: competition ELISA on coated muTfR-His against 1 nM biotinylated Ab4, streptavidin-HRP
T3 construct: extracellular domain; Bought protein (Sino Biological); also called muTfR-His; muTfR ECD
T3 sequence (Q62351 89-763): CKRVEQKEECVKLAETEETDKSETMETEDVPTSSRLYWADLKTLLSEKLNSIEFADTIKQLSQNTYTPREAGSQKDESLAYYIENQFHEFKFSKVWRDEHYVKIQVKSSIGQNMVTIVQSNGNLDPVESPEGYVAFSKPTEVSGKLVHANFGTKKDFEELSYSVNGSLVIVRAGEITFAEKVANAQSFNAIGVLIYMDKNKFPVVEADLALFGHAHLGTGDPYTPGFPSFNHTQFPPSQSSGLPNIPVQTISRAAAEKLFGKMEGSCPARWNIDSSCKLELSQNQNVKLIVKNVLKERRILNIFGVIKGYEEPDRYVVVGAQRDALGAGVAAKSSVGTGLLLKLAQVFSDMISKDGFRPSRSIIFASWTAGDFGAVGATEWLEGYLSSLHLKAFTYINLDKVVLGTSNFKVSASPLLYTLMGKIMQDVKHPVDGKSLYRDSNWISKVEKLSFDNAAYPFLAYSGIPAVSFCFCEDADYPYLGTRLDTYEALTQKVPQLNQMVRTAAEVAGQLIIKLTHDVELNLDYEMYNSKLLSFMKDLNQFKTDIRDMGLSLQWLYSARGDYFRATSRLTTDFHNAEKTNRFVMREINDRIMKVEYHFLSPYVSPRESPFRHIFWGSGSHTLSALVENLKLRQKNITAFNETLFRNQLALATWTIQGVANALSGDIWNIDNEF
Experimental: High-binding ELISA plates (Corning) were coated with muTfR-His at 2 μg/mL overnight at 4° C. After blocking with 1% BSA PBS, individual antibodies (at designated concentrations) and 1 nM biotinylated TfR Ab4 in 1% BSA PBS were incubated with coated muTfR for 2 hours at room temperature. After washing with PBS+0.05% Tween-20, streptavidin-HRP (Jackson ImmunoResearch) was added at 1:5000 concentration and incubated for 1 hour at room temperature. After washing with PBS+0.05% Tween-20, TMB substrate (Thermo Fisher Scientific) was added and incubated for 5 min before being stopped by 1N H₂SO₄. OD values were read at 450 nm.

[6] = biological target: T3, muTfR extracellular domain (ECD), …; experiment: BLI, biotinylated VEGFA on streptavidin sensors, no antibody, then muTfR ECD
Experimental: To characterize the bispecific antibodies a BLI-based sandwich capture assay. The bispecific antibodies were first captured onto sensors via VEGF165A. After equilibrium in blank buffer, the sensor-captured bispecific antibodies were then incubated with muTfR ECD. The VEGF-Trap/TfR bispecific antibodies were shown simultaneously binding to both VEGF165 and TfR. To further validate the antigen binding, we introduced another three control groups that missed one of the three binding partners (VEGFA, Ab, or TfR). […] Finally, the flat curves without TfR confirmed the observed binding signals in curves A and E were antibodies binding to TfR.
Streptavidin sensors (Fortebio) were used to capture biotinylated VEGFA proteins (Sino Biological). During all incubation steps, samples were kept at room temperature with 1000 rpm shaking. In the VEGFA loading step, 100 nM biotinylated VEGFA proteins were incubated with the sensors for the designated time. In the bispecific antibody interaction steps, 200 nM antibodies were used. In the muTfR incubation step, 100 nM muTfR-His (Sino Biological) were used. Between incubations, the sensors were dipped into blank kinetic buffers to allow the free dissociation of proteins.

B1: 5B6 (antibody, V domains shown)
VH: PVLLVQSGAEVKKPGSSVKVSCKASGGTFSSYAISWVRQAPGQGLEWMGGIIPIFGTANYAQKFQGRVTITADESTSTAYMELSSLRSEDTAVYYCAVSIFGVVIPLDYWGQGTLVIVSS
VL: QPVLTQSPSVSLAPGQTAKITCGGTNIGRKSVHWYQQKPGQAPVMVIYYDSDRPSGIPERFAGSNSGNTATLTISRVEAGDEAVYYCQVWDSSSASGVFGGGTKVTVL
notes: Human IgG1, converted from a phage scFv clone
Kd [1]: < 1 pM | koff [1]: < 1e-07 s⁻¹ | kon [1]: 87900 M⁻¹ s⁻¹ | Kd [2]: 575 pM | koff [2]: 2.98e-05 s⁻¹ | kon [2]: 51800 M⁻¹ s⁻¹

B2: 7B10 (antibody, V domains shown)
VH: QVQLVQSGAEVKKPGASVKVSCKASGYTFTSYGISWVRQAPGQGLEWMGWISAYNGNTNYAQKLQGRVTMTTDTSTSTAYMELRSLRSDDTAVYYCARDQKLLHILYYYGMDVWGQGTTVIVSS
VL: DIVMTQSPLSLSVTPGEPASISCRSSQSLLHSNGNNYLDWYLQKPGQSPQLLIYLGSNRASGVPDRFSGSGSGTDFSLKINKVEAEDVGVYYCMQALQTAYTFGQGTKLEIK
notes: as for B1
binding result [3]: binds

B3: 1B2 (antibody, V domains shown)
VH: QVQLVQSGAEVKKPGESLRISCKGSGYSFTSYWISWVRQMPGKGLEWMGRIDPSDSYTNYSPSFQGHVTISADKSISTAYLQWSSLKASDTAMYYCARHPLAYCGGDCQRGFDYWGQGTLVTVSS
VL: QPVLTQPPSVSVSPGQTARITCSGDKLREDLTSWYQQKPGQSPVLVIYQDSKRPSGIPARFSGSISGSTATLTISGTQAVDEADYYCQAWDNSVDYVFGTGTKVTVL
notes: as for B1
binding result [4]: binds

B4: 8A5 (antibody, V domains shown)
VH: QVQLVQSGAEVKKPGESLRISCKGSGYSFTSYWISWVRQMPGKGLEWMGRIDPSDSYTNYSPSFQGHVTISADKSISTAYLQWSSLKASDTAIYYCARARTWFDAFDIWGQGTTVTVSS
VL: QAVVTQPPSASGTPGQRVTISCSGGSSNIGRYSVNWYQQLPGTAPKLLINSNIQRPSGVPDRFSGSKSGTSASLAISGLQSEDEADYHCAAWDDSLKGWVFGGGTKVTVL
notes: as for B1
binding result [3]: binds

B5: VEGF-Trap (Fc fusion, UniProt P17948 129-230, looked up)
chain: SDTGRPFVEMYSEIPEIIHMTEGRELVIPCRVTSPNITVTLKKFPLDTLIPDGKRIIWDSRKGFIISNATYKEIGLLTCEATVNGHLYKTNYLTHRQTNTIIDVVLSPSHGIELSVGEKLVLNCTARTELNVGIDFNWEYPSSKHQHKKLVNRDLKTQSGSEMKKFLSTLTIDGVTRSDQGLYTCAASSGLMTKKNSTFVRVHEK
notes: domain: D2 domain;domain: D3 domain; Designed on aflibercept; also called VEGF-Trap positive control; not shown: human Fc fragment
binding result [5]: no binding

B6: 8G5 (antibody, V domains shown)
VH: QVQLVQSGAEVKKPGASVKVSCKASGYTFTSYGISWVRQAPGQGLEWMGWISAYNGNTNYAQKLQGRVTMTTDTSTSTAYMELRSLRSDDTAVYYCARVGYYYYGMDVWGQGTTVTVSS
VL: QSVLTQPPSVSGAPGQRVTISCTGSSSNIGAGFDVHWYQQLPGTAPKLLIYANSNRPSGVPDRFSASKSGTSASLAITGLQAEDEADYYCQSYDRSLSGYVFGSGTKVTVL
notes: as for B1
binding result [3]: binds

B7: 7A1 (antibody, V domains shown)
VH: QVQLVQSGAEVKKPGSSVKVSCKASGGTFSSYAISWVRQAPGQGLEWMGGIIPIFGTANYAQKFQGRVTITADESTSTAYMELSSLRSEDTAVYYCARSGYYNDAFDIWGQGTMVTVSS
VL: QSALTQPASVSGSPGQSITISCTGTNSDIGGYNYVSWYQQHPGKAPKLMIYEVSNRPSGVSNRFSGSKSGNTASLTISGLQAEDEAHYYCSSYTSSSTLVFGGGTKVTVL
notes: as for B1
binding result [3]: binds

B8: 1C8 (antibody, V domains shown)
VH: QVQLVQSGAEVKKPGSSMKVSCKASGGTFSSYAISWVRQAPGQGLEWMGGIIPIFGTAKYAQKFQGRVTITADESTTTAYMELSSLSSEDTAVYYCARSLGWYYAFDIWGQGTMVTVSS
VL: DIVMTQSPSTLSASVGDRVTITCRASQNINNWLAWYQQKPGKAPKLLIYKASTAESGVPSRFSGSGFGTEFTLTISSLQPDDFASYYCQQYKNYPYSNLYTFGQGTKVDIK
notes: as for B1
binding result [4]: binds

B9: 3H8 (antibody, V domains shown)
VH: QVQLVQSGAEVKKPGESLRISCKGSGYSFTSYWISWVRQMPGKGLEWMGRIDPSDSYTNYSPSFQGHVTISADKSISTAYLQWSSLKASDTAMYYCARHPPRSTRGDYGMDVWGQGTMVTVSS
VL: QAVVTQPPSVSGTPGQRVTISCSGSNSNIGSYIVNWYQQLPGTAPKLLIWGNDRRPSGVPDRVSASKSGTSASLAISGLQSEDEGDYYCAAWDNILNNYVFGPGTQLTVL
notes: as for B1
binding result [4]: binds

B10: VEGFA (VEGF165) (ligand, human, UniProt P15692-4 27-191, looked up)
chain: APMAEGGGQNHHEVVKFMDVYQRSYCHPIETLVDIFQEYPDEIEYIFKPSCVPLMRCGGCCNDEGLECVPTEESNITMQIMRIKPHQGQHIGEMSFLQHNKCECRPKKDRARQENPCGPCSERRKHLFVQDPQTCKCSCKNTDSRCKARQLELNERTCRCDKPRR
notes: also called VEGF165A; human VEGFA
binding result [6]: no binding (tested: 100 nM muTfR-His)

B11: 4G1 (antibody, V domains shown)
VH: EVQLLESGGGLIQPGGSLRLSCAASGFSVSSYYMNWVRQAPGKGLEWVSNTYTDGSTSYADSVGGRFSVSRDNSKNTLHLQMNSLRVEDTAVYYCAREGDGYNSGGLDYWGQGTLVTVSS
VL: DIQLTQSPASLSASLGDRVTITCRASQSIGTYLNWYQQRPGQAPKLLIFGTSSLQSGVPSRFSGSGSGTDFTLTISSLQPEDLATYYCQQTYITPRTFGQGTKVEIK
notes: as for B1
Kd [1]: < 1 pM | koff [1]: < 1e-07 s⁻¹ | kon [1]: 94500 M⁻¹ s⁻¹ | Kd [2]: < 1 pM | koff [2]: < 1e-07 s⁻¹ | kon [2]: 79900 M⁻¹ s⁻¹
